# Source: paper PMC13140594, “Characterization of high affinity IgM and IgG monoclonal antibodies against norovirus variants GII.4 and GII.17” (Protein Science : A Publication of the Protein Society, 2026)
# T1: norovirus GII.17 P‐domain (Norovirus GII.17, GenBank AKI30060 …, strain)
# T1 construct: Cloned into a modified pMAL-c6T vector; also called P‐domain of GII.17 strain; norovirus P‐domain GII.17 strain; source: E. coli BL21 (DE3), purified (Ni-NTA Agarose, SEC Superdex 75)
# T1 chain: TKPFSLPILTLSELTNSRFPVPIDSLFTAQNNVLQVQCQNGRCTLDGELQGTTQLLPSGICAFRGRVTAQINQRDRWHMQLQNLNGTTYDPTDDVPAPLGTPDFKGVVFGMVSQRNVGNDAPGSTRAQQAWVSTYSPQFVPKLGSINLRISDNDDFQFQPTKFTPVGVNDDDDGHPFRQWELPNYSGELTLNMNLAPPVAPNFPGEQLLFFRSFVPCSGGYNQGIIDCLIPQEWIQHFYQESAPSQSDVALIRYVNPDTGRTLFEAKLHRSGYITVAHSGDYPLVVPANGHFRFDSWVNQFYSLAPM
# B1: 14C2 IgG (antibody, V domains shown)
# VH: QAYLQQSGAELMKPGASMRISCKATGYTFSNYWIEWVKQRPGHGLEWIGEILPGGGGTDYNEKFKGKATFTADTSSNTAYMQLSSLTSEDSAVYYCARSTFYGYDGGLYYFPMDYWGQGTSVTVSP
# VL: DIVMTQSPAIMSASPGEKVTMTCSTNSSISYMHWYQQKPGTSPKRWIYDTSKLASGVPARFSGSGSGTSYSLTISSMEAEDAATYYCHQRSSYPWTFGGGTKLEIK
# notes: variable domain of the heavy chain of 14C2; light chain of 14C2; Mouse IgG2b; also called IgG antibody 14C2; source: mouse hybridoma supernatant, purified (HiTrap Protein G HP, SEC Superdex 200); copies: 2 + 2
# B2: 1‐arm IgG (Fab region of IgG antibody 14C2) (Fab, V domains shown)
# VH: B1 VH
# VL: B1 VL
# notes: Fab region of the heavy chain of 14C2; light chain of 14C2; gene codon-optimised for mammalian cells; also called 14C2 Fab; source: Expi293 cells, purified (Ni-NTA Agarose, SEC Superdex 75); not shown: His tag (inferred from the Ni-NTA purification)
# Legend:
# Conditions in all cases: both partners purified
# [1] = target: T1, norovirus GII.17 P‐domain; test: SPR; Biacore 8K; P-domain immobilised on CM5 by amine coupling, antibody as analyte; PBST, 30 uL/min, 180 s association, 600 s dissociation; 1:1 kinetic model
# [2] = target: T1, norovirus GII.17 P‐domain; test: SPR; Biacore 8K; antibody immobilised, P-domain as analyte; 1:1 kinetic model
# [3] = target: T1, norovirus GII.17 P‐domain; test: SPR; GII.17 P-domain immobilised on CM5 at 4577 r.u., antibody as analyte; PBST; 1:1 kinetic model
# [4] = target: T1, norovirus GII.17 P‐domain; test: SPR; GII.17 P-domain immobilised on CM5 at 922 r.u., antibody as analyte; PBST; 1:1 kinetic model
# [5] = target: T1, norovirus GII.17 P‐domain; test: SPR; GII.17 P-domain immobilised on CM5 at 1059 r.u., antibody as analyte; PBST; 1:1 kinetic model
# [6] = target: T1, norovirus GII.17 P‐domain; test: SPR; GII.17 P-domain immobilised on CM5 at 138 r.u., antibody as analyte; PBST; 1:1 kinetic model
# [7] = target: T1, norovirus GII.17 P‐domain; test: SPR; GII.17 P-domain immobilised on CM5 at 3830 r.u., antibody as analyte; PBST; 1:1 kinetic model
# [8] = target: T1, norovirus GII.17 P‐domain; test: SPR; GII.17 P-domain immobilised on CM5 at 458 r.u., antibody as analyte; PBST; 1:1 kinetic model
binder,measurement,setting,value
B1,Kd,[1],0.000921 nM
same,koff,[1],1.07e-07 s⁻¹
same,kon,[1],116000 M⁻¹ s⁻¹
same,Kd,[2],1.55 nM
same,koff,[2],0.000129 s⁻¹
same,kon,[2],82900 M⁻¹ s⁻¹
B2,Kd,[3],167 nM
same,koff,[3],0.0026 s⁻¹
same,kon,[3],15600 M⁻¹ s⁻¹
same,Kd,[4],281 nM
same,koff,[4],0.0024 s⁻¹
same,kon,[4],8550 M⁻¹ s⁻¹
same,Kd,[5],204 nM
same,koff,[5],0.00297 s⁻¹
same,kon,[5],14600 M⁻¹ s⁻¹
same,Kd,[6],170 nM
same,koff,[6],0.0025 s⁻¹
same,kon,[6],14700 M⁻¹ s⁻¹
same,Kd,[7],135 nM
same,koff,[7],0.0034 s⁻¹
same,kon,[7],25100 M⁻¹ s⁻¹
same,Kd,[8],241 nM
same,koff,[8],0.00246 s⁻¹
same,kon,[8],10200 M⁻¹ s⁻¹
